Changes are numbered by the printed parent chain.
B1: AS170036 VL1VH1-VHG108A (scFv)
scFv: QSALTQPRSVSGSPGQSVTISCAGTSSDVGSENYVSWYQQHPGKAPKLMIYQVNKRASGVPDRFSGSKSGNTASLTISGLQAEDEADYYCASYRSSDHNIVFGGGTKLTVLGGGGSGGGGSGGGGSEVQLVESGGGLVQPGGSLRLSCAASGFTFSSYAMSWVRQAPGKGLEWVSTINSGTGSPYYADSVKGRFTISRDNSKNTLYLQMNSLRAEDTAVYYCAKNFFDGSWFLAPPAMDYWGQGTLVTVSSHHHHHH
B2: AS170036 VL1VH1-VHG56N (scFv)
scFv: B1 scFv with G182N, A234G
B3: AS170036 VL1VH1-VLH98Q (scFv)
scFv: B1 scFv with H98Q, A234G
B4: AS170036 VL1VH1-VLH98I (scFv)
scFv: B1 scFv with H98I, A234G
B5: AS170036 VL1VH1-VLH98F (scFv)
scFv: B1 scFv with H98F, A234G
B6: AS170036 VL1VH1-VHG108D (scFv)
scFv: B1 scFv with A234D
B7: AS170036 VL1VH1 (scFv)
scFv: B1 scFv with A234G
notes: Crude scFv from E. coli TG1 supernatant, captured on the chip; also called AS170036 VL1VH1 scFv
B8: 27-AS170036 VL1VH1-57K108S (scFv)
scFv: B1 scFv with S183K, A234S
notes: Crude scFv mutein of AS170036 VL1VH1
B9: 10-AS170036 VL1VH1-57K98F (scFv)
scFv: B1 scFv with H98F, S183K, A234G
notes: as for B8
B10: 16-AS170036 VL1VH1-56Y108A (scFv)
scFv: B1 scFv with G182Y
notes: as for B8
B11: 82-AS170036 VL1VH1-57M98Q108A (scFv)
scFv: B1 scFv with H98Q, S183M
notes: as for B8
B12: 45-AS170036 VL1VH1-56Y98I108S (scFv)
scFv: B1 scFv with H98I, G182Y, A234S
notes: as for B8
B13: 22-AS170036 VL1VH1-57H108A (scFv)
scFv: B1 scFv with S183H
notes: as for B8
B14: 67-AS170036 VL1VH1-57K98F108A (scFv)
scFv: B1 scFv with H98F, S183K
notes: as for B8
B15: 05-AS170036 VL1VH1-56N98I (scFv)
scFv: B1 scFv with H98I, G182N, A234G
notes: as for B8
B16: 70-AS170036 VL1VH1-57K98I108A (scFv)
scFv: B1 scFv with H98I, S183K
notes: as for B8
B17: 49-AS170036 VL1VH1-56N98F108A (scFv)
scFv: B1 scFv with H98F, G182N
notes: as for B8
B18: 43-AS170036 VL1VH1-56Y98I108A (scFv)
scFv: B1 scFv with H98I, G182Y
notes: as for B8
B19: 42-AS170036 VL1VH1-56Y98F108S (scFv)
scFv: B1 scFv with H98F, G182Y, A234S
notes: as for B8
B20: 40-AS170036 VL1VH1-56Y98F108A (scFv)
scFv: B1 scFv with H98F, G182Y
notes: as for B8
B21: 19-AS170036 VL1VH1-56N108A (scFv)
scFv: B1 scFv with G182N
notes: as for B8
B22: 03-AS170036 VL1VH1-56Y98Q (scFv)
scFv: B1 scFv with H98Q, G182Y, A234G
notes: as for B8
B23: 48-AS170036 VL1VH1-56Y98Q108S (scFv)
scFv: B1 scFv with H98Q, G182Y, A234S
notes: as for B8
B24: 75-AS170036 VL1VH1-57K98Q108S (scFv)
scFv: B1 scFv with H98Q, S183K, A234S
notes: as for B8
B25: 15-AS170036 VL1VH1-57M98Q (scFv)
scFv: B1 scFv with H98Q, S183M, A234G
notes: as for B8
B26: 34-AS170036 VL1VH1-98I108A (scFv)
scFv: B1 scFv with H98I
notes: as for B8
B27: 25-AS170036 VL1VH1-57K108A (scFv)
scFv: B1 scFv with S183K
notes: as for B8
B28: AS167821 sdAb-mIgG2aFc (Fc fusion, not shown: a dimerising Fc or GST)
chain: QVRLVESGGGSVQAGGSLRLSCAASGRTYSTYCMGWFRQAPGKEREGVATIYIGSGRTYYVDSVKGRFTISQDNAKNTLYLQMNNLKPEDTAMYYCTADVDPYESSWSRGLGYWGQGTQVTVSS
notes: i647-labelled for flow cytometry

What follows are binders tested against T1, AFP158/HLA-A*02:01 complex (human) (assay: SPR; vs AS170036 VL1VH1).
T1 construct: biotinylated on the BSP by BirA for ELISA and panning; also called biotinylated AFP158/HLA-A*02:01 complex; Bio-AFP158
B1 was tested, and the Affinity increase was greater than 2 fold. B2 gave an Affinity increase greater than 2 fold. B3 was tested, and the Affinity increase was greater than 2 fold. Binder B4 has an Affinity increase greater than 2 fold. In the case of B5, the Affinity increase is reported as greater than 2 fold. For B6, the Affinity increase was greater than 2 fold.

Each binder was assayed against ATG9A peptide/HLA-A*02:01 complex (recombinant) (human) (assay: SPR).
B1: no binding (tested: all below 3.5 RU). B2: no binding (tested: all below 3.5 RU). B6: no binding (tested: all below 3.5 RU).

The binders below were run against OR51B6 peptide/HLA-A*02:01 complex (recombinant) (human) (assay: SPR).
B2: no binding (tested: all below 3.5 RU). B3: no binding (tested: all below 3.5 RU). B4: no binding (tested: all below 3.5 RU). B5: no binding (tested: all below 3.5 RU).

Each binder was assayed against PTP4A1 peptide/HLA-A*02:01 complex (recombinant) (human) (assay: SPR).
B1: no binding (tested: all below 3.5 RU). B2: no binding (tested: all below 3.5 RU). B4: no binding (tested: all below 3.5 RU). B5: no binding (tested: all below 3.5 RU). B6: no binding (tested: all below 3.5 RU).

The binders below were run against RCL1 peptide/HLA-A*02:01 complex (recombinant) (human, UniProt P16213 21-119 (Pongo pygmaeus entry)) (assay: SPR).
B1: no binding (tested: all below 3.5 RU). B2: no binding (tested: all below 3.5 RU). B3: no binding (tested: all below 3.5 RU). B4: no binding (tested: all below 3.5 RU). B5: no binding (tested: all below 3.5 RU). B6: no binding (tested: all below 3.5 RU).

What follows are binders tested against RP1 peptide/HLA-A*02:01 complex (recombinant) (human, UniProt P16213 21-119 (Pongo pygmaeus entry)) (assay: SPR).
B1: no binding (tested: all below 3.5 RU). B2: no binding (tested: all below 3.5 RU). B3: no binding (tested: all below 3.5 RU). B4: no binding (tested: all below 3.5 RU). B5: no binding (tested: all below 3.5 RU). B6: no binding (tested: all below 3.5 RU).

Each binder was assayed against ZNF566 peptide/HLA-A*02:01 complex (recombinant) (human) (assay: SPR).
B1: no binding (tested: all below 3.5 RU). B2: no binding (tested: all below 3.5 RU). B3: no binding (tested: all below 3.5 RU). B4: no binding (tested: all below 3.5 RU). B5: no binding (tested: all below 3.5 RU). B6: no binding (tested: all below 3.5 RU).

The binders below were run against CDC14A peptide/HLA-A*02:01 complex (recombinant) (human) (assay: SPR).
B1: no binding (tested: all below 3.5 RU). B2: no binding (tested: all below 3.5 RU). B3: no binding (tested: all below 3.5 RU). B4: no binding (tested: all below 3.5 RU). B5: no binding (tested: all below 3.5 RU). B6: no binding (tested: all below 3.5 RU).

Each binder was assayed against OR1I1 peptide/HLA-A*02:01 complex (recombinant) (human) (assay: SPR).
B1: no binding (tested: all below 3.5 RU). B2: no binding (tested: all below 3.5 RU). B3: no binding (tested: all below 3.5 RU). B4: no binding (tested: all below 3.5 RU). B5: no binding (tested: all below 3.5 RU). B6: no binding (tested: all below 3.5 RU).

What follows are binders tested against BRCA2 peptide/HLA-A*02:01 complex (recombinant) (human) (assay: SPR).
B1: no binding (tested: all below 3.5 RU). B2: no binding (tested: all below 3.5 RU). B3: no binding (tested: all below 3.5 RU). B4: no binding (tested: all below 3.5 RU). B5: no binding (tested: all below 3.5 RU). B6: no binding (tested: all below 3.5 RU).

What follows are binders tested against NR2E1 peptide/HLA-A*02:01 complex (recombinant) (human) (assay: SPR).
B1: no binding (tested: all below 3.5 RU). B2: no binding (tested: all below 3.5 RU). B3: no binding (tested: all below 3.5 RU). B4: no binding (tested: all below 3.5 RU). B5: no binding (tested: all below 3.5 RU). B6: no binding (tested: all below 3.5 RU).

Molecular target: T1, AFP158/HLA-A*02:01 complex
Experiment: SPR; vs AS170036 VL1VH1
Remark: another data set of the same source
B1 was tested, and the Affinity increase was 5.5 fold. Binder B2 has an Affinity increase of 2.5 fold. Work on B6 yielded an Affinity increase of 5.5 fold.

Each binder was assayed against T2, AFP158/HLA-A*02:01 complex (human) (assay: SPR (BIAcore T200), crude scFv captured, complex flowed over).
T2 construct: flowed over the chip as analyte; also called AFP158 peptide/HLA-A*02:01 complex
Description: The experiment was carried out as follows. The crude scFv protein were captured onto the sensorchip. Different concentrations (320, 160, 40 nM) of AFP158/HLA-A*02:01 complex flowed over the sensorchip surface, and were allowed to bind the antibody fragment for 100 s followed by injection of the running buffer to allow dissociation of the complex. On-rate (kd) and off-rate (kd) were calculated based on association and dissociation curve, and were used to estimate the equilibrium dissociation constant (KD).
The 84 muteins were then tested for their selectivity. The 12 recombinant AFP158 homologous peptides/HLA-A*02:01 complex were mixed in three groups (group 1: ZNF566 and ARNTL, group 2: CDC14A, PTP4A1, BRCA2 and RCL1, group 3: OR1I1, OR51B6, OR6C1, ATG9A, RP1 and NR2E1). The binding of the 84 antibodies to these complexes were then measured by method described above.
B7 was tested, and the SPR binding level was 196 RU. B8 gave an SPR binding level of 627 RU. B9 showed an SPR binding level of 614 RU. Binder B10 has an SPR binding level of 601 RU. With B11 the SPR binding level was 662 RU. B12 gave an SPR binding level of 689 RU. B13 was tested, and the SPR binding level was 571 RU. B14 gave an SPR binding level of 686 RU. Work on B15 yielded an SPR binding level of 564 RU. Binder B16 has an SPR binding level of 807 RU. For B17, the SPR binding level was 604 RU. B18 was tested, and the SPR binding level was 664 RU. B19 was tested, and the SPR binding level was 682 RU. B20 gave an SPR binding level of 587 RU. B21 was tested, and the SPR binding level was 526 RU. B22 gave an SPR binding level of 738 RU. For B23, the SPR binding level was 817 RU. Binder B24 has an SPR binding level of 819 RU. For B25, the SPR binding level was 554 RU. B26 showed an SPR binding level of 559 RU. For B27, the SPR binding level was 554 RU.

Each binder was assayed against T1, AFP158/HLA-A*02:01 complex (assay: SPR, crude scFv captured;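 also: Peptide–MHC complex flowed at several concentrations over sensorchip-captured scFv, Kd derived from on- and off-rates obtained from the association and dissociation curves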).
B1 gave a Kd of 42 nM. Work on B2 yielded a Kd of 92 nM. B6 was tested, and the Kd was 42 nM.

What follows are binders tested against T1, AFP158/HLA-A*02:01 complex (assay: SPR, antibody captured via mIgG2a-Fc, complex as analyte).
Description: The binding affinity between selected antibodies and AFP158/HLA-A*02:01 complex was determined by surface plasmon resonance (SPR) on a BIAcore T200 instrument (GE Healthcare). The experiment was carried out as follows. The purified sdAb/scFv-mIgG2aFc protein were captured through mIgG2a-Fc onto the sensorchip. […] On-rate (kₐ) and off-rate (kd) were calculated based on association and dissociation curve, and were used to estimate the equilibrium dissociation constant (KD).
B28 was tested, and the Kd was 95 nM, the koff was 0.039 s⁻¹ and the kon was 410000 M⁻¹ s⁻¹.

From patent US20240279318A1 (NANJING LEGEND BIOTECH, published 2024)
